In assay [1] the target is T1, human Nectin-4 extracellular antigen (Nectin-4-His) (Homo sapiens, UniProt Q96NY8).
T1 construct: albumin signal peptide (replaces the native Nectin-4 signal peptide) (N); made in house
T1 sequence (Q96NY8 with tags, fused parts or gaps): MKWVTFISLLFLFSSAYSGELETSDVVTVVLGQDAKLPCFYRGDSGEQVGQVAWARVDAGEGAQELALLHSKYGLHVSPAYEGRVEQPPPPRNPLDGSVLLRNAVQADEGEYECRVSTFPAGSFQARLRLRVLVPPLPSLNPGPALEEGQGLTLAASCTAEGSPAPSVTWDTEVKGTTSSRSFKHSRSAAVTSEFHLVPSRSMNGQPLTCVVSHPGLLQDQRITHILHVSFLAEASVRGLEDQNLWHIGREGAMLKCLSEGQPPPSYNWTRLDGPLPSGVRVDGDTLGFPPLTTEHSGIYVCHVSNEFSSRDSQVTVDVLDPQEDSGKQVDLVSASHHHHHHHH
As to the kind of experiment: Affinity measurement by SPR (BIAcore T200, Protein A chip capture). Format: binding. Conditions: 1:1 model fit. How it is done:
(§1) The candidate antibodies (ASG-22 and ASG-AM) were analyzed for their affinity for the human Nectin-4 extracellular antigen using surface plasmon resonance (SPR) technology (BIAcore: GE Healthcare, T200).
(§2) The capture was conducted on a Protein A chip (Cat #29127556, GE Healthcare): Antibody dilutions ([…]) were directed through the experimental flow channels (Fc2 and Fc4) at a flow rate of 10 μL/min for 10 s. Then antigen Nectin-4-His (prepared from Example 1) dilutions at different concentrations (0 nM, 1.23 nM, 3.7 nM, 11.1 nM, 33.3 nM, and 100 nM) were sequentially introduced with the flow rate adjusted to 30 μL/min through the surfaces of the experimental flow channels (Fc2 and Fc4) and reference flow channels (Fc1 and Fc3) with 120 s of association and 180 s of dissociation. Finally, the chip regenerated in Glycine 1.5. Fitting and analysis were performed using BiaEvaluation 3.2, with a 1:1 model for the fitting.

Assay [2] addresses T1, human Nectin-4 extracellular antigen (Nectin-4-His). As to the kind of experiment: Affinity measurement by BLI (Octet QKe, Protein A biosensor). The class given is binding. How it is done: (§3) The affinity of candidate antibodies (ASG-22 and ASG-AM) for the human Nectin-4 extracellular antigen was detected using the bio-layer interferometry (BLI) technology on the Octet platform (Fortebio, Octet QKe).
(§4) Antibodies were loaded onto a Protein A biosensor (Fortebio, 18-5010) at a concentration of 20 μg/mL with a loading time of 60 s. Nectin-4-His antigen concentrations were set at 200 nM, 100 nM, 50 nM, 25 nM, and 0 nM. The antigen association time was 180 s, and the dissociation time was 200 s. Data were then processed and analyzed using Acquisition 8.2 to give affinity constants (see Table 4).

For assay [3], the system named is T-47D cells. As to the kind of experiment: Endocytosis assay by FACS (antibody remaining on cell surface). Format: cell-based, human. The following applies: 10 μg/mL antibody. How it is done: The relative quantity of antibodies remaining on the cell surface after incubation at 37° C. for a certain period was detected by FACS to reflect the efficiency of endocytosis. The method is briefly described as follows: T-47D cells (human ductal breast carcinoma cells, sourced from the Cell Bank of the Chinese Academy of Sciences, Cat. No.: TCHu 87) were used. Each test antibody was adjusted to a concentration of 10 μg/mL and co-incubated with cells (at a density of 0.5×10^6 cells/mL) on ice for 1 h for binding. The cells were washed thrice with pre-cooled PBS and then incubated at 37° C. for 0 h, 2 h, and 4 h. The endocytosis reaction was terminated with 0.2% N3Na, and the cells were washed thrice with PBS. Subsequently, a PE-labeled anti-human Fc secondary antibody (Invitrogen 12-4998-82) was added, and the cells were incubated at 4° C. for 30 min. The red fluorescence signal was detected by a flow cytometer.

For assay [4], the system named is T-47D cells. As to the kind of experiment: Binding of antibody to T-47D cells by FACS. Conditions: 3-fold dilutions from 100 nM, 4° C. Also on record: species or system human. How it is done: (§5) The binding activity of antibody ASG-AM to T-47D cells (human ductal breast carcinoma cells, sourced from the Cell Bank of the Chinese Academy of Sciences, Cat. No.: TCHu 87) was detected by FACS and compared with that of the reference antibody ASG-22. The EC50 of the binding of candidate antibodies to the cells was analyzed using the four-parameter method. The method is briefly described as follows: T-47D cells were digested with pancreatin. Each candidate antibody was serially 3-fold diluted from 100 nM and co-incubated with T-47D cells at 4° C. for 0.5-1 h. Subsequently, a PE-labeled anti-human Fc secondary antibody (Invitrogen, 12-4998-82) was added. The signal intensity of the red fluorescence was detected by a flow cytometer. Graphpad Prism was used for plotting and calculating the EC50.

Assay [5] addresses T2, Nectin-4 on T-47D cells (human ductal breast carcinoma cells) (human, UniProt Q96NY8 32-510).
T2 construct: whole, on cells; that is inferred from the antibodies' specificity
T2 sequence (looked up): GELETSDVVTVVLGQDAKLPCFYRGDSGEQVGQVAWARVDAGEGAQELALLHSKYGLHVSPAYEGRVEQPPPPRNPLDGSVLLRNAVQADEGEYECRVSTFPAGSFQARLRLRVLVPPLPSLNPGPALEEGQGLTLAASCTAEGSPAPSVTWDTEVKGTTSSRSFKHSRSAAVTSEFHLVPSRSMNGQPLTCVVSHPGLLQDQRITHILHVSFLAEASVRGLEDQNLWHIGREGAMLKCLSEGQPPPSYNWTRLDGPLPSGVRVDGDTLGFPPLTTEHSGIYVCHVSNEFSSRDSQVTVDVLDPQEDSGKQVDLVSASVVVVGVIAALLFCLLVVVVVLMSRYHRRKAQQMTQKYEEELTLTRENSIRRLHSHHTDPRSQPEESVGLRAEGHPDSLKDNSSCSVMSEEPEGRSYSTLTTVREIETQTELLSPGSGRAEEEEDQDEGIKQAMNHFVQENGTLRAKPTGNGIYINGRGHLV
As to the kind of experiment: FACS on T-47D cells, antibody 3-fold diluted from 100 nM, PE-labeled anti-human Fc secondary antibody, four-parameter fit. As to the method:
as §5, with “EC₅₀” for “EC50”, “EC₅₀.” for “EC50.”

Assay [6] has as its target T3, human Nectin-4 extracellular antigen Nectin-4-His (human, UniProt Q96NY8 32-349).
T3 construct: the secreted protein in the assay lacks the signal peptide
T3 sequence: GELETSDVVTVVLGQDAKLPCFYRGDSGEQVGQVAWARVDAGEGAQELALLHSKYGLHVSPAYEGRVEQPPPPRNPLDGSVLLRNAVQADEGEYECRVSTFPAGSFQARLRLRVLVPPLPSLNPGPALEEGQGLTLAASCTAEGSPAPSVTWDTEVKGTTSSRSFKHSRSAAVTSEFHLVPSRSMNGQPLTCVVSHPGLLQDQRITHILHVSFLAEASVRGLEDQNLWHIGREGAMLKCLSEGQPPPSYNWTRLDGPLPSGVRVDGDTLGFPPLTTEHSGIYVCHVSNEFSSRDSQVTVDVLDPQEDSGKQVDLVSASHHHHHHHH
As to the kind of experiment: SPR (BIAcore T200), antibody captured on Protein A chip, Nectin-4-His as analyte, 1:1 fit. How it is done: as §1, §2

For assay [7], the target named is T3, human Nectin-4 extracellular antigen …. As to the kind of experiment: BLI (Octet QKe), antibody loaded on Protein A biosensor, Nectin-4-His in solution. As to the method: as §3, §4
(BLI is a label-free optical method that tracks binding on a fibre tip over time.)

For the molecule “ASG-22: reference anti-Nectin-4 antibody; heavy chain SEQ ID NO: 12, light chain SEQ ID NO: 17 (Table 2) [reference compound]”, in assay [1], the Ka was found to be 606000 M⁻¹ s⁻¹ and the Rmax is 164.2 RU. Also, the Kd in assay [1] (dissociation rate) came to 0.00523 s⁻¹. In assay [2], this molecule showed an Rmax of 0.5303, a kdis of 0.00162 s⁻¹ and a kon of 113000 M⁻¹ s⁻¹. The “red fluorescence signal at 0 h” value in assay [3] (37° C. for 0 h) was found to be 24098.3. Besides, in assay [3] (37° C. for 2 h), the “Endocytosis at 2 h” value came out at 53.46% and the “red fluorescence signal at 2 h” value is on record as 11216.0. Further, in assay [3] (37° C. for 4 h), the “Endocytosis at 4 h” value came out at 74.97% and the “red fluorescence signal at 4 h” value turned out to be 6033. In assay [4], the “binding curves to T-47D cells” value is reported as “substantially consistent”.

B1: reference antibody ASG-22 (antibody, human IgG1, kappa, V domains shown)
VH: EVQLVESGGGLVQPGGSLRLSCAASGFTFSSYNMNWVRQAPGKGLEWVSYISSSSSTIYYADSVKGRFTISRDNAKNSLSLQMNSLRDEDTAVYYCARAYYYGMDVWGQGTLVTVSS
VL: DIQMTQSPSSVSASVGDRVTITCRASQGISGWLAWYQQKPGKAPKFLIYAASTLQSGVPSRFSGSGSGTDFTLTISSLQPEDFATYYCQQANSFPPTFGGGTKVEIKR
notes: Expressed in HEK293F cells
For B1, a half-maximal effect in assay [5] (EC50) was put at 0.752 nM. In assay [6], this molecule came in with a Kd of 8.64 nM, a koff of 0.00523 s⁻¹ and a kon of 606000 M⁻¹ s⁻¹. Also, in assay [7], the Kd amounted to 14.3 nM, the koff stood at 0.00162 s⁻¹ and the kon was determined as 113000 M⁻¹ s⁻¹.

B2: anti-Nectin-4 antibody ASG-AM (antibody, human IgG1, kappa, V domains shown)
VH: B1 VH
VL: DIQMTQSPSSVSASVGDRVTITCRASQGISGWLAWYQQKPGKAPKFLIYAASTLQSGVPSRFSGSGSGTDFTLTISSLQPEDFATYYCQQAGPGWVFGQGTKVEIKR
notes: Expressed in HEK293F cells
As to B2, in assay [5], the EC50 was determined as 0.726 nM. Besides, in assay [6], the Kd turned out to be 1.79 nM, the koff is 0.000535 s⁻¹ and the on-rate constant (kon) worked out at 298000 M⁻¹ s⁻¹. Moreover, in assay [7], the Kd was found to be 0.266 nM, the koff was found to be 2.38e-05 s⁻¹ and the kon was 89600 M⁻¹ s⁻¹.

The kon is the second-order rate constant of association. A low value points to slower complex formation. Broadly, the EC50 is the concentration needed to bring the measured effect to its halfway point. Low readings indicate greater potency, high ones weaker potency. Broadly, the koff is the first-order rate constant of dissociation. Higher therefore signals a short-lived complex.

The values above are taken from US20260008848A1, “ANTI-NECTIN-4 ANTIBODY, AND ANTIBODY-DRUG CONJUGATE AND USE THEREOF” (Bio-Thera Solutions, Ltd., priority 2022, published 2026).
